Laboratory results as given in US20100216853.
Changes are numbered by the printed parent chain. In names and notes the source's numbering stands.

T1: H4-15 histone H4 tail peptide
T1 chain: GRGKGGKGLGKGGAK

T2: H4-12(K5A/K12A) peptide
T2 chain: RGAGGKGLGAGA

T3: H4-12(K5X/K12A) peptide
T3 chain: RGXGGKGLGAGA

T4: H4-15(K5D/K12D) peptide
T4 chain: GRGDGGKGLGDGGAK

B1: semi-synthetic p300 HAT domain E1505R (protein)
chain: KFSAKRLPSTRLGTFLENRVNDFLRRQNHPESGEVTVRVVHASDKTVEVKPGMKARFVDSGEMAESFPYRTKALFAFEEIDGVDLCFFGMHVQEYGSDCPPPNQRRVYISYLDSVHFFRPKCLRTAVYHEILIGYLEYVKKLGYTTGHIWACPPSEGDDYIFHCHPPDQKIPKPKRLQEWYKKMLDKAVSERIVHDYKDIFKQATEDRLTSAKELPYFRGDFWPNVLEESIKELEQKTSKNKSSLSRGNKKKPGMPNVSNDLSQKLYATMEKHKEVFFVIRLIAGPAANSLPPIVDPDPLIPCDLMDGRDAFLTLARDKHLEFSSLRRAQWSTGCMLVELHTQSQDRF
B2: semi-synthetic p300 HAT domain S1396R/Y1397R double mutant (protein)
chain: B1 chain with S110R, Y111R, R219E
B3: semi-synthetic p300 HAT domain E1505R/D1625R/D1628R triple mutant (protein)
chain: B1 chain with D307R, D310R
B4: semi-synthetic p300 HAT domain Y1394F (protein)
chain: B1 chain with Y108F, R219E
B5: semi-synthetic p300 HAT domain R1410K (protein)
chain: B1 chain with R124K, R219E
B6: semi-synthetic p300 HAT domain T1357R (protein)
chain: B1 chain with T71R, R219E
B7: semi-synthetic p300 HAT domain H1434A (protein)
chain: B1 chain with H148A, R219E
B8: semi-synthetic p300 HAT domain T1357L (protein)
chain: B1 chain with T71L, R219E
B9: semi-synthetic p300 HAT domain Y1467F (protein)
chain: B1 chain with Y181F, R219E
B10: semi-synthetic p300 HAT domain, wild-type (protein)
chain: B1 chain with R219E
B11: semi-synthetic p300 HAT domain D1628R (protein)
chain: B1 chain with R219E, D310R
B12: semi-synthetic p300 HAT domain W1436A (protein)
chain: B1 chain with W150A, R219E
B13: semi-synthetic p300 HAT domain D1625R (protein)
chain: B1 chain with R219E, D307R
B14: semi-synthetic p300 HAT domain D1625R/D1628R double mutant (protein)
chain: B1 chain with R219E, D307R, D310R
B15: semi-synthetic p300 HAT domain R1410A (protein)
chain: B1 chain with R124A, R219E

How the values were obtained:
[1] = target: T1, H4-15 histone H4 tail peptide
H4-12(K5A/K12A) peptide = target: T2, H4-12(K5A/K12A) peptide
H4-12(K5X/K12A) peptide = target: T3, H4-12(K5X/K12A) peptide
H4-15(K5D/K12D) peptide = target: T4, H4-15(K5D/K12D) peptide

Protein | Km(µM) for H4-15 [1] | V/K [1] [M⁻¹ s⁻¹] | also measured
B1 | >1000 | 2000 | V/K decrease against wild-type [1]: V/K was decreased by 12-fold
B2 |  |  | decrease of p300 HAT activity against wild-type [1]: severely decreased p300 HAT activity (>50-fold)
B3 | >1000 | 232 | 
B4 | 136 µM |  | 
B5 | 156 µM |  | 
B6 | 294 µM | 13200 | 
B7 | 151 µM |  | 
B8 | 111 µM | 18700 | 
B9 | 520 µM |  | 
B10 | 164 µM | 25000 ± 1640 | Km (H4-12(K5A/K12A) peptide): Km of these substrates were generally too high to be measured (>1000 µM); V/K(M^-1s^-1) for W.T. (H4-12(K5A/K12A) peptide): 3820 M⁻¹ s⁻¹; V/K(M^-1s^-1) for W.T. [1]: 25000 M⁻¹ s⁻¹; Km (H4-12(K5X/K12A) peptide): Km of these substrates were generally too high to be measured (>1000 µM); V/K(M^-1s^-1) for W.T. (H4-12(K5X/K12A) peptide): 5250 M⁻¹ s⁻¹; Km (H4-15(K5D/K12D) peptide): Km of these substrates were generally too high to be measured (>1000 µM); V/K(M^-1s^-1) for W.T. (H4-15(K5D/K12D) peptide): 636 M⁻¹ s⁻¹
B11 | >1000 | 2100 | V/K decrease against wild-type [1]: V/K was decreased by 12-fold
B12 | 394 µM |  | 
B13 | 640 µM | 5670 | V/K decrease against wild-type [1]: a V/K decrease of about 5-fold
B14 | >1000 | 1160 | V/K(M^-1s^-1) for D1625R/D1628R (H4-12(K5A/K12A) peptide): 515 M⁻¹ s⁻¹; loss in V/K against wild-type (H4-12(K5A/K12A) peptide): the loss of 6-fold in V/K for neutral H4 substrates; V/K difference against wild-type [1]: the 22-fold V/K difference between wild-type p300 HAT protein and the D1625R/D1628R mutant for H4-15 substrate; V/K drop against wild-type [1]: a 20-fold drop in V/K; V/K(M^-1s^-1) for D1625R/D1628R [1]: 1160 M⁻¹ s⁻¹; V/K(M^-1s^-1) for D1625R/D1628R (H4-12(K5X/K12A) peptide): 738 M⁻¹ s⁻¹; loss in V/K against wild-type (H4-12(K5X/K12A) peptide): the loss of 6-fold in V/K for neutral H4 substrates; V/K(M^-1s^-1) for D1625R/D1628R (H4-15(K5D/K12D) peptide): 422 M⁻¹ s⁻¹; acetyltransferase activity against wild-type (H4-15(K5D/K12D) peptide): almost equal (within 2-fold) acetyltransferase activity
B15 | 190 µM |  | 
